Source: US20170210810A1, “BIOMARKER PROFILES FOR PREDICTING OUTCOMES OF CANCER THERAPY WITH ERBB3 INHIBITORS AND/OR CHEMOTHERAPIES” (Merrimack Pharmaceuticals, Inc., priority 2013, published 2017)

Assays:
[1] = system: advanced, platinum-resistant ovarian cancer; experiment: Clinical trial in ovarian cancer: paclitaxel with or without MM-121 (Example 5); assay type: in vivo, human
Experimental: A clinical trial was performed that was designed to allow, inter alia, determination of associations between biomarker profiles and clinical responses. Biomarker data were measured in pre-treatment biopsies and (when available) in archived tumor samples. Results pertaining to predictive biomarkers measured in pre-treatment biopsies are described herein.
In total, six primary biomarkers were measured using 15 assays. For the 5 chromogenic assays (qIHC and RNA-ISH), two different overall scores were used: composite score and top-10 score. Accordingly, 20 different variables were assessed at this stage. A Cox proportional hazard model was used to rank the biomarkers. This method determines if PFS varies with biomarker values differently in the treatment arm relative to the control arm. A P-value cutoff of 0.4 was used to determine which biomarkers would be prioritized for subsequent bivariate analyses.
Based on these two thresholds, a biomarker profile positive (BM+) subpopulation is defined for subsequent analyses as: (ErbB2 levels≦log10 5.1) AND (HRG score≧1) (“ErbB2 low” AND “HRG positive”). Accordingly, a biomarker profile negative (BM−) subpopulation is defined as (ErbB2 levels >log10 5.1) OR (HRG score<1) This definition results in a BM+ prevalence of 34% in the clinical trial population.
In FIG. 8G (progression free survival at 10+ months) and FIG. 8H (overall survival at 10+ months), the treatment arm is represented by a blue line and the control arm is represented by a black line.

[2] = system: EGFR-wild-type non-small cell lung cancer (NSCLC)
Description: A group participating in the study was comprised of 132 patients with wild-type epidermal growth factor receptor (EGFR) who progressed on ≧1 platinum-based standard of care therapy and were EGFR tyrosine kinase inhibitor (TKI)-naïve. […] Data were collected at 10+ months.
BM+ patients were defined as having detectable HRG mRNA by RNA-ISH (RNA in situ hybridization) as described above in Example 1.

[3] = cited from earlier work
[4] = system: locally advanced or metastatic ER+ and/or PR+, HER2 negative breast cancer; experiment: Randomized, double-blind phase 2 trial of exemestane +/- MM-121 in breast cancer (Example 6)
Experimental: This population is for safety analyses, as well as the primary population for all efficacy parameters.
Analyses were performed on the five pre-specified primary biomarkers, all mechanistically linked to ErbB3 signaling, as measured in FFPE archived tissue blocks. Biomarkers were assessed based on local HR scans. Thresholds for defining biomarker profile positive populations were chosen based on these scans and on results obtained in the above-described ovarian cancer trial. A single two-variable model was assessed using HRG and ErbB2, based on the findings from the above-described ovarian cancer trial. HRs in the biomarker profile positive and negative populations were calculated using a Cox proportional hazard model that included biomarker groups by treatment and stratification factors as additive factors. Only patients with non-missing biomarkers were used in each calculation.
Both assays were performed using FFPE archived tissue blocks.
Biomarker profile positive (BM+) and biomarker profile negative (BM−) subpopulations were defined by dichotomizing biomarker values for HRG and ErbB2. For HRG, a cut point of −5 (RT-PCR score) was chosen based on the local HR scan (value at which HR=1). […] Two separate analyses of ErbB2 levels are provided: (1) ErbB2 levels based on the qIHC assay; and (2) for patients where qIHC data are missing, but HCT results were available, ErbB2 levels were adapted from the reported HCT results, with a score of HCT 2+ being deemed equal to log10(ErbB2)=5.1.
All efficacy analyses for the BM subgroups were performed using a Cox proportional hazard model that included both of the pre-specified strata as additive effects in combination with the treatment effect. The ErbB2 low & HRG high BM+ subpopulation was defined as patients with log10(ErbB2)≦5.1 and HRG RT-PCR>−5.

[5] = best overall response, BM+ (heregulin+) as worded in FIG. 11 legend
[6] = safety population, count (percentage)

Molecule: CC(=O)O[C@H]1C(=O)[C@@]2(C)[C@H]([C@H](OC(=O)c3ccccc3)[C@]3(O)C[C@H](OC(=O)[C@H](O)[C@@H](NC(=O)c4ccccc4)c4ccccc4)C(C)=C1C3(C)C)[C@]1(OC(C)=O)CO[C@@H]1C[C@@H]2O [paclitaxel, Paclitaxel, reference compound]
- PFS of BM− (heregulin−) patients compared with BM+ (heregulin+) patients ([1]; patients treated with paclitaxel alone (FIG. 8I)): much longer

Molecule: C#Cc1cccc(Nc2ncnc3cc(OCCOC)c(OCCOC)cc23)c1 [erlotinib]
- complete response (CR) [2, 5]: none
- partial response (PR) [2, 5]: 6.7%
- progressive disease (PD) [2, 5]: 53.3%
- PFS of BM− (heregulin−) patients compared with BM+ (heregulin+) patients ([2]; patients treated with erlotinib alone (FIG. 12C)): much longer

Molecule: C=C1C[C@@H]2[C@H](CC[C@]3(C)C(=O)CC[C@@H]23)[C@@]2(C)C=CC(=O)C=C12 [exemestane, 6-methylenandrosta-1,4-diene-3,17-dione, reference compound]
- solubility in N,N-dimethylformamide ([3]; N,N-dimethylformamide): freely soluble
- solubility in methanol ([3]; methanol): soluble
- solubility in water ([3]; water): practically insoluble
- objective response rate ([4]; BM+ patients): 0%
- objective response rate ([4]; BM− patients): 5.9%
- time within which all treated patients exhibited disease progression ([4]; biomarker profile positive tumors (FIG. 10B)): ≤ 20 weeks
- PFS of BM− (heregulin−) patients compared with BM+ (heregulin+) patients ([4]; patients treated with exemestane alone (FIG. 10E)): much longer
- Subjects with CTCAE grade 3 or higher TEAE [4, 6]: 15 ( 25.4)
- Subjects with TEAE leading to death [4, 6]: 1 ( 1.7)
- Subjects with TEAE leading to dose discontinuation [4, 6]: 0
- Subjects with TEAE related to study drug (a) [4, 6]: 32 ( 54.2)
- Subjects with at least one AE [4, 6]: 51 ( 86.4)
- Subjects with at least one TEAE [4, 6]: 50 ( 84.7)
- Subjects with serious TEAE [4, 6]: 11 ( 18.6)

B1: MM-121: anti-ErbB3 monoclonal antibody having VH and VL sequences as shown in SEQ ID NOs: 1 and 2 (antibody, V domains shown)
VH: EVQLLESGGGLVQPGGSLRLSCAASGFTFSHYVMAWVRQAPGKGLEWVSSISSSGGWTLYADSVKGRFTISRDNSKNTLYLQMNSLRAEDTAVYYCTRGLKMATIFDYWGQGTLVTVSS
VL: QSALTQPASVSGSPGQSITISCTGTSSDVGSYNVVSWYQQHPGKAPKLIIYEVSQRPSGVSNRFSGSKSGNTASLTISGLQTEDEADYYCCSYAGSSIFVIFGGGTKVTVL
- HR (trt:ctrl) ([1]; BM+, subgroup ErbB3 score ≧2): 0.33
- HR (trt:ctrl) ([1]; BM+, subgroup ErbB4 score 0): 0.13
- HR (trt:ctrl) ([1]; BM−, subgroup ErbB4 score ≧1): 2.20
- cumulative HR ([1]; patients with detectable levels of HRG and low levels of ErbB2): < 0.5
- PFS versus erlotinib alone ([2]; unselected overall population (FIG. 12A)): overall better outcomes
- HR ([4]; Group ErbB2 < 5.1 (HCT), BM negative): 3.00
- HR ([4]; Group ErbB2 < 5.1 (HCT), BM population): 0.82
- HR ([4]; Group ErbB2 < 5.1 (HCT), BM positive): 0.62
- HR ([4]; Group ErbB2 < 5.1 (qIHC) & HRG > −5, BM negative): 1.30
- HR ([4]; Group ErbB2 < 5.1 (qIHC) & HRG > −5, BM population): 0.86
- HR ([4]; Group ErbB2 < 5.1 (qIHC) & HRG > −5, BM positive): 0.32
- HR ([4]; Group ErbB2 < 5.1 (qIHC), BM negative): 3.00
- HR ([4]; Group ErbB2 < 5.1 (qIHC), BM population): 1.16
- HR ([4]; Group ErbB2 < 5.1 (qIHC), BM positive): 0.84
- HR ([4]; Group HRG > −5, BM negative): 0.99
- HR ([4]; Group HRG > −5, BM population): 0.68
- HR ([4]; Group HRG > −5, BM positive): 0.35
- benefit (PFS) from adding MM-121 to exemestane therapy ([4]; biomarker negative patient population (FIG. 10A)): little if any benefit
- benefit (PFS) from adding MM-121 to exemestane therapy ([4]; biomarker positive population (FIG. 10B)): dramatic benefit
- decrease in risk of death ([4]; full patient population, overall survival, vs standard-of-care arm): 59%
- decrease in risk of progression ([4]; heregulin-positive patients, n=34, final analysis): 74%
- HR ([4]; no selection, BM population N=115): 0.75
